Reference: PMC6945527 (European Heart Journal, 2019)

B1: CAP1 of the surface plasmon resonance assay and of the binding-affinity measurement (natural protein)
chain: MADMQNLVERLERAVGRLEAVSHTSDMHRGYADSPSKAGAAPYVQAFDSLLAGPVAEYLKISKEIGGDVQKHAEMVHTGLKLERALLVTASQCQQPAENKLSDLLAPISEQIKEVITFREKNRGSKLFNHLSAVSESIQALGWVAMAPKPGPYVKEMNDAAMFYTNRVLKEYKDVDKKHVDWVKAYLSIWTELQAYIKEFHTTGLAWSKTGPVAKELSGLPSGPSAGSCPPPPPPCPPPPPVSTISCSYESASRSSLFAQINQGESITHALKHVSDDMKTHKNPALKAQSGPVRSGPKPFSAPKPQTSPSPKRATKKEPAVLELEGKKWRVENQENVSNLVIEDTELKQVAYIYKCVNTTLQIKGKINSITVDNCKKLGLVFDDVVGIVEIINSKDVKVQVMGKVPTISINKTDGCHAYLSKNSLDCEIVSAKSSEMNVLIPTEGGDFNEFPVPEQFKTLWNGQKLVTTVTEIAG

Assays:
[1] = target: CAP1 of the surface plasmon resonance assay and of the binding-affinity measurement (UniProt Q01518)
[2] = target: PCSK9 WT of the binding-affinity measurement (Figure S2) (human, UniProt Q8NBP7 31-692)
[3] = target: PCSK9 A514T of the binding-affinity measurement (Figure S2) (human, UniProt Q8NBP7 31-692, A514T)
[4] = target: PCSK9 S668RG670E of the binding-affinity measurement (Figure S2) (human, UniProt Q8NBP7 31-692, S668R | G670E)
PCSK9 S668RG670E of the binding-affinity measurement (Figure S2), sequence (Q8NBP7 31-692 S668R/G670E): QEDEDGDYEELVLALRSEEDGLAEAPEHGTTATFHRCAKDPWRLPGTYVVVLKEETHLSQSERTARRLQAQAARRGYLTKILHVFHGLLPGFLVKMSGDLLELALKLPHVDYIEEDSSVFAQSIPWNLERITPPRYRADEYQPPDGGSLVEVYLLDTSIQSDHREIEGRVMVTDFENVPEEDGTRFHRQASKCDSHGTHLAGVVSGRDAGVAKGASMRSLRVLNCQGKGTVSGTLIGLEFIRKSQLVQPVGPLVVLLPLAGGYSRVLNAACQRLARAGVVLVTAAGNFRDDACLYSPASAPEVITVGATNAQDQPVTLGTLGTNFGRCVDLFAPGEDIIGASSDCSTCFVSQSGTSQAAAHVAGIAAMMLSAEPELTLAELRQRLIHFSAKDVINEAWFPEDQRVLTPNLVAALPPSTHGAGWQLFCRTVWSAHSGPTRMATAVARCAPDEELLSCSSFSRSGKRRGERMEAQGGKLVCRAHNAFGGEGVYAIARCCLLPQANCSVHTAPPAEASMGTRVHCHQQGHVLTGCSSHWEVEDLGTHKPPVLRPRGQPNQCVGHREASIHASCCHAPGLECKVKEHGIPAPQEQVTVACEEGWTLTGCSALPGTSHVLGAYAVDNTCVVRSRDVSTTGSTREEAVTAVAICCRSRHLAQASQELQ

PCSK9 WT of the binding-affinity measurement (Figure S2), sequence (Q8NBP7 31-692): as the sequence (Q8NBP7 31-692 S668R/G670E) above, with R638S, E640G counted along it
PCSK9 A514T of the binding-affinity measurement (Figure S2), sequence (Q8NBP7 31-692 A514T): as the sequence (Q8NBP7 31-692 S668R/G670E) above, with A484T, R638S, E640G counted along it

| Molecule | Kd [1] [nM] | Kd [2] [nM] | Kd [3] [nM] | Kd [4] [nM] |
| --- | --- | --- | --- | --- |
| PCSK9 G670E of the binding-affinity measurement (Figure S2) (from UniProt Q8NBP7 31-692) (natural protein) | 960 | – | – | – |
| B1 | – | 450 | 110 | 2320 |
